B1: H4H10430P (antibody, human IgG4, V domains shown)
VH: EVQLVESGGGLVQPGRSLRLSCKASGFAFDDFAMHWVRQAPGKGLEWVSGIVWNSGDIGYADSVKGRFTISRDNAKNSLYLQLNSLRTEDTALYFCVKDMVRGLMGFNYYGMDVWGQGTTVTVSS
VL: EIVLTQSPATLSLSPGERATLSCRASQTISTYLVWYRQRPGQAPSLLIYDASNRATDIPARFSGSGSGTDFTLTISSLEPEDFAVYYCQQRSNWPITFGQGTRLEIK
notes: H4H prefix means human IgG4 Fc
B2: H4H10440P2 (antibody, human IgG4, V domains shown)
VH: EVQLVESGGGVVQPGGSLRLSCAASTFTFDDFAMHWVRQAPGKGLEWVSLITGDGGSTYYADPVKGRFTISRDNSKNSLYLQMNSLRTEDTALYYCVKDWWIAARPDYYYYGMDVWGQGTTVTVSS
VL: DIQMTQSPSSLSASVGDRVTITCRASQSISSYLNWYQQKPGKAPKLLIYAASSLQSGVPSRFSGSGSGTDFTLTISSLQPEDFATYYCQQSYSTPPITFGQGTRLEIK
notes: as for B1
B3: H4H10446P2 (antibody, human IgG4, V domains shown)
VH: QVQLQESGPGLVKPSETLSLTCTVSGGSFSSHFWSWIRQPPGKGLEWIGYILYTGGTSFNPSLKSRVSMSVGTSKNQFSLKLSSVTAADTAVYYCARARSGITFTGIIVPGSFDIWGQGTMVTVSS
VL: not shown
notes: as for B1

biological target: T1, Activin A (homodimer of two inhibin βA subunits; R&D Systems, #338-AC) (human, UniProt P08476 311-426); experiment: SPR blocking: 5 nM Activin A + 15 nM binder over hActRIIA-hFc surface
T1 construct: Bought protein; also called inhibin-βA dimer
T1 sequence: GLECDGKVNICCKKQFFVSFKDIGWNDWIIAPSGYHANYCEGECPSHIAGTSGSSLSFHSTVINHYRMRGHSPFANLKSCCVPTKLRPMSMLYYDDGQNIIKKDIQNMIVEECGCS
Description: (§1) The binding signal (RU) was measured at 150 seconds after the start of the injection, and this signal was subtracted by the measured RU value for a negative control reference surface to determine the specific binding signal.

| Binder | % bound RU w/no inhibitor [%] |
| --- | --- |
| B1 | 2 |
| B2 | 4 |
| B3 | 108 |

biological target: T1, Activin A (homodimer of two inhibin βA …); experiment: SPR blocking: 5 nM Activin A + 30 nM binder over hActRIIA-hFc surface
Description: as §1

| Binder | % bound RU w/no inhibitor [%] |
| --- | --- |
| B1 | 2 |
| B2 | 3 |
| B3 | 98 |

biological target: T1, Activin A (homodimer of two inhibin βA …); experiment: SPR blocking: 5 nM Activin A + 60 nM binder over hActRIIA-hFc surface
Description: as §1

| Binder | % bound RU w/no inhibitor [%] |
| --- | --- |
| B1 | 2 |
| B2 | 3 |
| B3 | 118 |

biological target: T1, Activin A (homodimer of two inhibin βA …); experiment: SPR blocking: 5 nM Activin A + 0 nM binder over Follistatin-288 surface
Description: as §1

| Binder | % bound RU w/no inhibitor [%] |
| --- | --- |
| B1 | 100 |
| B2 | 100 |
| B3 | 100 |

biological target: T1, Activin A (homodimer of two inhibin βA …); experiment: SPR blocking: 5 nM Activin A + 0.00 nM binder over hActRIIA-hFc surface
Description: as §1

| Binder | % bound RU w/no inhibitor [%] |
| --- | --- |
| B1 | 100 |
| B2 | 100 |
| B3 | 100 |

biological target: T1, Activin A (homodimer of two inhibin βA …); experiment: SPR blocking: 5 nM Activin A + 0.94 nM binder over hActRIIA-hFc surface
Description: as §1

| Binder | % bound RU w/no inhibitor [%] |
| --- | --- |
| B1 | 81 |
| B2 | 75 |
| B3 | 111 |

biological target: T1, Activin A (homodimer of two inhibin βA …); experiment: SPR blocking: 5 nM Activin A + 1.88 nM binder over hActRIIA-hFc surface
Description: as §1

| Binder | % bound RU w/no inhibitor [%] |
| --- | --- |
| B1 | 62 |
| B2 | 52 |
| B3 | 115 |

biological target: T1, Activin A (homodimer of two inhibin βA …); experiment: SPR blocking: 5 nM Activin A + 3.75 nM binder over hActRIIA-hFc surface
Description: as §1

| Binder | % bound RU w/no inhibitor [%] |
| --- | --- |
| B1 | 19 |
| B2 | 17 |
| B3 | 85 |

biological target: T1, Activin A (homodimer of two inhibin βA …); experiment: SPR blocking: 5 nM Activin A + 7.50 nM binder over hActRIIA-hFc surface
Description: as §1

| Binder | % bound RU w/no inhibitor [%] |
| --- | --- |
| B1 | 3 |
| B2 | 6 |
| B3 | 94 |

biological target: T1, Activin A (homodimer of two inhibin βA …); experiment: SPR blocking: 5 nM Activin A + 15 nM binder over Follistatin-288 surface
Description: as §1

| Binder | % bound RU w/no inhibitor [%] |
| --- | --- |
| B1 | 1 |
| B2 | 2 |
| B3 | 3 |

biological target: T1, Activin A (homodimer of two inhibin βA …); experiment: SPR blocking: 5 nM Activin A + 30 nM binder over Follistatin-288 surface
Description: as §1

| Binder | % bound RU w/no inhibitor [%] |
| --- | --- |
| B1 | 1 |
| B2 | 1 |
| B3 | 3 |

biological target: T1, Activin A (homodimer of two inhibin βA …); experiment: SPR blocking: 5 nM Activin A + 60 nM binder over Follistatin-288 surface
Description: as §1

| Binder | % bound RU w/no inhibitor [%] |
| --- | --- |
| B1 | 1 |
| B2 | 0 |
| B3 | 3 |

biological target: T1, Activin A (homodimer of two inhibin βA …); experiment: SPR blocking: 5 nM Activin A + 7.5 nM binder over Follistatin-288 surface
Description: as §1

| Binder | % bound RU w/no inhibitor [%] |
| --- | --- |
| B1 | 1 |
| B2 | 4 |
| B3 | 3 |

biological target: T1, Activin A (homodimer of two inhibin βA …); experiment: SPR blocking: 5 nM Activin A + 0.94 nM binder over Follistatin-288 surface
Description: as §1

| Binder | % bound RU w/no inhibitor [%] |
| --- | --- |
| B1 | 79 |
| B2 | 76 |
| B3 | 77 |

biological target: T1, Activin A (homodimer of two inhibin βA …); experiment: SPR blocking: 5 nM Activin A + 1.88 nM binder over Follistatin-288 surface
Description: as §1

| Binder | % bound RU w/no inhibitor [%] |
| --- | --- |
| B1 | 59 |
| B2 | 57 |
| B3 | 54 |

biological target: T1, Activin A (homodimer of two inhibin βA …); experiment: SPR blocking: 5 nM Activin A + 3.75 nM binder over Follistatin-288 surface
Description: as §1

| Binder | % bound RU w/no inhibitor [%] |
| --- | --- |
| B1 | 15 |
| B2 | 17 |
| B3 | 7 |

biological target: T1, Activin A (homodimer of two inhibin βA …); experiment: SPR blocking: 5 nM Activin A + 15 nM binder over hActRIIB-hFc (Control 4) surface

| Binder | % bound RU w/no inhibitor [%] |
| --- | --- |
| B1 | 3 |
| B2 | 4 |
| B3 | 115 |

biological target: T1, Activin A (homodimer of two inhibin βA …); experiment: SPR blocking: 5 nM Activin A + 30 nM binder over hActRIIB-hFc (Control 4) surface
Description: as §1

| Binder | % bound RU w/no inhibitor [%] |
| --- | --- |
| B1 | 3 |
| B2 | 4 |
| B3 | 89 |

biological target: T1, Activin A (homodimer of two inhibin βA …); experiment: SPR blocking: 5 nM Activin A + 60 nM binder over hActRIIB-hFc (Control 4) surface
Description: as §1

| Binder | % bound RU w/no inhibitor [%] |
| --- | --- |
| B1 | 3 |
| B2 | 4 |
| B3 | 129 |

biological target: T1, Activin A (homodimer of two inhibin βA …); experiment: SPR blocking: 5 nM Activin A + 0.00 nM binder over hActRIIB-hFc (Control 4) surface
Description: as §1

| Binder | % bound RU w/no inhibitor [%] |
| --- | --- |
| B1 | 100 |
| B2 | 100 |
| B3 | 100 |

biological target: T1, Activin A (homodimer of two inhibin βA …); experiment: SPR blocking: 5 nM Activin A + 0.94 nM binder over hActRIIB-hFc (Control 4) surface

| Binder | % bound RU w/no inhibitor [%] |
| --- | --- |
| B1 | 80 |
| B2 | 79 |
| B3 | 107 |

biological target: T1, Activin A (homodimer of two inhibin βA …); experiment: SPR blocking: 5 nM Activin A + 1.88 nM binder over hActRIIB-hFc (Control 4) surface
Description: as §1

| Binder | % bound RU w/no inhibitor [%] |
| --- | --- |
| B1 | 62 |
| B2 | 58 |
| B3 | 105 |

biological target: T1, Activin A (homodimer of two inhibin βA …); experiment: SPR blocking: 5 nM Activin A + 3.75 nM binder over hActRIIB-hFc (Control 4) surface
Description: as §1

| Binder | % bound RU w/no inhibitor [%] |
| --- | --- |
| B1 | 20 |
| B2 | 19 |
| B3 | 76 |

biological target: T1, Activin A (homodimer of two inhibin βA …); experiment: SPR blocking: 5 nM Activin A + 7.50 nM binder over hActRIIB-hFc (Control 4) surface

| Binder | % bound RU w/no inhibitor [%] |
| --- | --- |
| B1 | 4 |
| B2 | 7 |
| B3 | 95 |

Source: patent US20150037339A1 (Regeneron, published 2015)
